Reference: US20250250355A1 (BIOSION, published 2025)
Read-outs that look alike come from different tables or passages of the source.

T1: mouse SIRPα-his (mouse, UniProt P97797 35-363, limits assumed)
T1 chain: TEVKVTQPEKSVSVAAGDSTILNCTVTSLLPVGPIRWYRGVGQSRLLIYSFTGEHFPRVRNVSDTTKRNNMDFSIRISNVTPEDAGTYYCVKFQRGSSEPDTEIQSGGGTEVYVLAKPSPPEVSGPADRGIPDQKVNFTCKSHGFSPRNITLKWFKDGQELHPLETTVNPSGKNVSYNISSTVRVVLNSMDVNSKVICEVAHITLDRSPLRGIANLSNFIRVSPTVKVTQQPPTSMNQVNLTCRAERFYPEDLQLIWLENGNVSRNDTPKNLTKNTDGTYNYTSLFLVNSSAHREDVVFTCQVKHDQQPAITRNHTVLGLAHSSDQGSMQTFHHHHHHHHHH

T2: cynomolgus SIRPα-his protein (cynomolgus)
T2 construct: also called Cyno SIRPα-his; monkey SIRPα
T2 chain: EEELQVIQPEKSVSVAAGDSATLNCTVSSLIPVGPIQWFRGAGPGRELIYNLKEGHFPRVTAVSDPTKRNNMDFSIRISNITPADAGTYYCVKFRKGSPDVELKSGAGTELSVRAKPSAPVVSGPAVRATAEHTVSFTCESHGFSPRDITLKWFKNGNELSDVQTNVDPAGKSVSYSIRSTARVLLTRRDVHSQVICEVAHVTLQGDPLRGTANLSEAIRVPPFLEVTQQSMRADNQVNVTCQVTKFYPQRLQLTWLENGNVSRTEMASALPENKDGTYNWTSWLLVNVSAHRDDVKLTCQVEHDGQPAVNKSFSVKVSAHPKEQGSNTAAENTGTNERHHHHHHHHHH


Legend:
mouse SIRPα-his = target: T1, mouse SIRPα-his; assay: indirect ELISA on coated mouse SIRPα-his, OD(450-630)
[1] = target: human SIRPα-V8-his protein (human, UniProt P78324 31-370, limits assumed); assay: indirect ELISA on coated human SIRPα-V8-his, OD(450-630)
[2] = target: T2, cynomolgus SIRPα-his protein; assay: indirect ELISA on coated cynomolgus SIRPα-his, OD(450-630)
[3] = target: human SIRPα-isoform 2-his protein (human); assay: indirect ELISA on coated human SIRPα-isoform 2-his, OD(450-630)
[4] = target: T3, full length human SIRPα on cell membranes (HEK293-SIRPα cells; 293F-SIRPα cells) (human, UniProt P78324 31-504); assay: cell based binding FACS on 293F cells expressing human SIRPα, MFI
T3 construct: whole, on cells; also called cell surface human SIRPα; cell surface SIRPα

[5] = target: T4, full length human SIRPβ on cell membranes (HEK293-SIRPβ cells; 293F cells expressing human SIRPβ) (human, UniProt O00241 30-398); assay: cell based binding FACS on 293F cells expressing human SIRPβ, MFI
T4 construct: whole, on cells; also called cell surface human SIRPβ

human SIRPγ-his protein = human SIRPγ-his protein (human, UniProt Q9P1W8 29-360, limits assumed); assay: SPR (Biacore T200), antibody captured on Protein A chip, human SIRPγ-his flowed
[6] = target: T5, full length human SIRPγ endogenously expressed on Jurkat cells (human, UniProt Q9P1W8 29-387); assay: cell based binding FACS on Jurkat cells (endogenous human SIRPγ), MFI
T5 construct: whole, on cells; also called human SIRPγ expressed on Jurkat cells

human SIRPβ-his protein = human SIRPβ-his protein (human, UniProt O00241 30-371); assay: SPR (Biacore T200), antibody captured on Protein A chip, human SIRPβ-his flowed
[7] = target: T6, human FcRn protein (Cat #FCM-H5286, Acro biosystems Inc.) (human, UniProt P55899 24-297; P61769 21-119); assay: SPR (Biacore); human FcRn covalently linked to CM5 chip, antibody flowed from 62.5 µg/ml; pH 6.0
[8] = target: T6, human FcRn protein (Cat #FCM-H5286, …); assay: SPR (Biacore); human FcRn covalently linked to CM5 chip, antibody flowed from 62.5 µg/ml; pH 7.4
[9] = target: T3, full length human SIRPα on cell …; assay: cell based blocking FACS on 293F-SIRPα cells; blocked ligand: human CD47 protein (CD47-Fc), MFI
human SIRPα-his protein [10] = target: T7, human SIRPα-his protein (human, UniProt P78324 31-370); assay: SPR (Biacore T200); antibody captured on Protein A chip, human SIRPα-his flowed from 200 nM; 1:1 Langmuir fit
[11] = target: T2, cynomolgus SIRPα-his protein; assay: SPR (Biacore T200); antibody captured on Protein A chip, cynomolgus SIRPα-his flowed from 200 nM; 1:1 Langmuir fit
[12] = target: human SIRPα protein (soluble, used on 293F-CD47 cells) (human, UniProt P78324 31-370, limits assumed); assay: cell based blocking FACS on 293F-CD47 cells; soluble human SIRPα protein blocked from binding cell surface human CD47, MFI
[13] = target: T6, human FcRn protein (Cat #FCM-H5286, …); assay: SPR (Biacore); human FcRn covalently linked to CM5 chip, antibody flowed from 62.5 µg/ml; pH 6.0; pH 6.0
[14] = target: T3, full length human SIRPα on cell …; assay: cell based binding FACS on HEK293-SIRPα cells, MFI
[15] = target: T4, full length human SIRPβ on cell …; assay: cell based binding FACS on HEK293-SIRPβ cells, MFI
[16] = target: human SIRPα-isoform 2-his protein (human); assay: indirect ELISA on coated human SIRPα-isoform 2-his, OD(450-630); remark: listed apart in the source
[17] = target: T3, full length human SIRPα on cell …; assay: cell based blocking FACS on 293F-SIRPα cells; blocked ligand: biotin-labeled human CD47-Fc, MFI
human SIRPα-his protein [18] = target: T7, human SIRPα-his protein; assay: competitive ELISA on coated human SIRPα-his; blocked ligand: biotin-labeled human CD47-his, OD(450-630)
[19] = target: T5, full length human SIRPγ endogenously …; assay: cell based binding FACS on Jurkat cells (endogenous human SIRPγ), MFI; curve flat near MFI 0 (see non_binding)
[20] = target: T8, recombinant human SIRPα-Fc protein (human, biotin-labeled (sites not given)); assay: capture ELISA, antibody captured on anti-mouse IgG F(ab')2, biotin-labeled human SIRPα-Fc in solution, OD(450-630)
T8 construct: also called biotin-labeled human SIRPα-Fc protein

[21] = target: T2, cynomolgus SIRPα-his protein; assay: indirect ELISA on coated cynomolgus SIRPα-his, OD(450-630); curve rises only above about 3 nM, to OD about 0.9 at the last point, no plateau
[22] = target: T2, cynomolgus SIRPα-his protein; assay: indirect ELISA on coated cynomolgus SIRPα-his, OD(450-630)
[23] = target: T4, full length human SIRPβ on cell …; assay: cell based binding FACS on HEK293-SIRPβ cells, MFI; plateau at MFI about 1300

T3 sequence (P78324 31-504): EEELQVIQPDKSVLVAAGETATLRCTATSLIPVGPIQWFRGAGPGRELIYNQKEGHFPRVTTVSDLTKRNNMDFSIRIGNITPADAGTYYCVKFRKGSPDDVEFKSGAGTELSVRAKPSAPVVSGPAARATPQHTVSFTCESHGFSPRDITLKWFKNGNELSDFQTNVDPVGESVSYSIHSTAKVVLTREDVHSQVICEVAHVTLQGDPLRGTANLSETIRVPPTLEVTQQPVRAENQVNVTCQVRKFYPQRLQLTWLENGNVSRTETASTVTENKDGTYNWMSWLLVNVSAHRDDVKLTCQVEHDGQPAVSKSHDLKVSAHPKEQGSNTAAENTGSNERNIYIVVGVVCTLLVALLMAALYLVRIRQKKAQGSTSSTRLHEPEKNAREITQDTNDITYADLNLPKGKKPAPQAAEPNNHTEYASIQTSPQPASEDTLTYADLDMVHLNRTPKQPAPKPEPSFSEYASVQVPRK
human SIRPα-isoform 2-his protein (human), sequence (chain, as listed by the source limits assumed): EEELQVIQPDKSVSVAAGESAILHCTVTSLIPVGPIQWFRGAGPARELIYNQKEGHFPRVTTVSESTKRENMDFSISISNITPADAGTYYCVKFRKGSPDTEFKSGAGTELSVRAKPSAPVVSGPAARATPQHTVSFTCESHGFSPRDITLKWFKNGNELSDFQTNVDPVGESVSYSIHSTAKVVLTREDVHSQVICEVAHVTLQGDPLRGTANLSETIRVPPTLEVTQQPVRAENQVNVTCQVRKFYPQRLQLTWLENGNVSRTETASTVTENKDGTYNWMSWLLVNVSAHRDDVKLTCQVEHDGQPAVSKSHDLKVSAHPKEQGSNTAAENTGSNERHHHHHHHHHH
T4 sequence (O00241 30-398): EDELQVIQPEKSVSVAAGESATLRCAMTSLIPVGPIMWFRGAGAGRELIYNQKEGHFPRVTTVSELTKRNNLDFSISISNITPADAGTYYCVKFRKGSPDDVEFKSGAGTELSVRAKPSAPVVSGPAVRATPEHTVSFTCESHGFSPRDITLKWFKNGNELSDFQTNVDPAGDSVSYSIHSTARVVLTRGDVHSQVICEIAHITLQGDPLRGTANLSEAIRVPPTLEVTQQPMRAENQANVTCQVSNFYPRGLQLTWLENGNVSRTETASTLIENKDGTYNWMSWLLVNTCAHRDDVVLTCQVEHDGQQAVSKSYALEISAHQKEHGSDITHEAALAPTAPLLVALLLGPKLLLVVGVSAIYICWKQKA
T5 sequence (Q9P1W8 29-387): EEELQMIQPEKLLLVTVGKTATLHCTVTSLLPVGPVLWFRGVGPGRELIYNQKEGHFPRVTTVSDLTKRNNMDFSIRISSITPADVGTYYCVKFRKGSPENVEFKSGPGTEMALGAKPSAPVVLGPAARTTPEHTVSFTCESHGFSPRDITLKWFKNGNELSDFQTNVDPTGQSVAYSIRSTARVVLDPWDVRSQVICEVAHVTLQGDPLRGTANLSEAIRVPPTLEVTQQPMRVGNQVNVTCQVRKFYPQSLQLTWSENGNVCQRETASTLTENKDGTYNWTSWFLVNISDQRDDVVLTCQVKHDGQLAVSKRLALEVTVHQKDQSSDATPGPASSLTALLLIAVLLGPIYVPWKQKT
T7 sequence (P78324 other isoform, or with tags, fused parts or gaps limits assumed): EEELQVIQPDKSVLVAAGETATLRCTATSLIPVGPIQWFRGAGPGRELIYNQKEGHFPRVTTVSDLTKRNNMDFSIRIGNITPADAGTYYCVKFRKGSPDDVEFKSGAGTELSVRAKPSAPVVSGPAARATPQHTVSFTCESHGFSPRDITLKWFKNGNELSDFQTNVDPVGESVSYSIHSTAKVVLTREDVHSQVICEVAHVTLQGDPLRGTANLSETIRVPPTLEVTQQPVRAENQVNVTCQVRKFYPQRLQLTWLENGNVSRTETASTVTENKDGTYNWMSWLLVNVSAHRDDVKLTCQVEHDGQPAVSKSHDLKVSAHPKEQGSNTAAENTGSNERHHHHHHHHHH
human SIRPα-V8-his protein, sequence (P78324 other isoform, or with tags, fused parts or gaps limits assumed): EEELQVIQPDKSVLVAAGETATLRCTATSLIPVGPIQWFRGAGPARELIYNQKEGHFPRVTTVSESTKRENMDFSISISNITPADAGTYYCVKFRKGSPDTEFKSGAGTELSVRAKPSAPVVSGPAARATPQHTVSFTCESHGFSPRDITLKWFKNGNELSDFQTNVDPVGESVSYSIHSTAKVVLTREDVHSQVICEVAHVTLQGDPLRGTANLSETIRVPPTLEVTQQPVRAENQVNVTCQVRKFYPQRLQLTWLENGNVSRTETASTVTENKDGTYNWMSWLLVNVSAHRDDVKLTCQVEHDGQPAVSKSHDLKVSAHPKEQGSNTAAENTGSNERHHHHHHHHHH
human SIRPβ-his protein, sequence (O00241 other isoform, or with tags, fused parts or gaps limits assumed): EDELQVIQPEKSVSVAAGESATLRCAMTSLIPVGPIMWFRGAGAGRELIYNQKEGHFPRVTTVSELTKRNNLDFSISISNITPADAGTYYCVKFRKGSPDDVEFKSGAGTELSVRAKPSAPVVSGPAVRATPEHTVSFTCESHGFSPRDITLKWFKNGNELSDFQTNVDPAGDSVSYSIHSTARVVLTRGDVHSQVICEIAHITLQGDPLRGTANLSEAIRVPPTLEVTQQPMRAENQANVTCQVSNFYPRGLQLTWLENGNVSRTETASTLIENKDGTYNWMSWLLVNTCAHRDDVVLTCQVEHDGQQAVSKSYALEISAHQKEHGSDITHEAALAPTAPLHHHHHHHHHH
human SIRPα protein (soluble, used on 293F-CD47 cells), sequence (P78324 31-370 limits assumed): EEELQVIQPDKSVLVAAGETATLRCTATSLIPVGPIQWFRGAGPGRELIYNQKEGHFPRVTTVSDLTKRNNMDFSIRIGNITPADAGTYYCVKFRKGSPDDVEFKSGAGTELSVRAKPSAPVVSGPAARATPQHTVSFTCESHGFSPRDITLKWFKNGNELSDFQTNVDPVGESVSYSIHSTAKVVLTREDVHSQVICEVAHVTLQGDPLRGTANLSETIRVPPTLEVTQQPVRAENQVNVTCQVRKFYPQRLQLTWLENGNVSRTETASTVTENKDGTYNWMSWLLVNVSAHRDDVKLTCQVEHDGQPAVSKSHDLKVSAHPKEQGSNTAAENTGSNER
T8 sequence (chain, as listed by the source limits assumed): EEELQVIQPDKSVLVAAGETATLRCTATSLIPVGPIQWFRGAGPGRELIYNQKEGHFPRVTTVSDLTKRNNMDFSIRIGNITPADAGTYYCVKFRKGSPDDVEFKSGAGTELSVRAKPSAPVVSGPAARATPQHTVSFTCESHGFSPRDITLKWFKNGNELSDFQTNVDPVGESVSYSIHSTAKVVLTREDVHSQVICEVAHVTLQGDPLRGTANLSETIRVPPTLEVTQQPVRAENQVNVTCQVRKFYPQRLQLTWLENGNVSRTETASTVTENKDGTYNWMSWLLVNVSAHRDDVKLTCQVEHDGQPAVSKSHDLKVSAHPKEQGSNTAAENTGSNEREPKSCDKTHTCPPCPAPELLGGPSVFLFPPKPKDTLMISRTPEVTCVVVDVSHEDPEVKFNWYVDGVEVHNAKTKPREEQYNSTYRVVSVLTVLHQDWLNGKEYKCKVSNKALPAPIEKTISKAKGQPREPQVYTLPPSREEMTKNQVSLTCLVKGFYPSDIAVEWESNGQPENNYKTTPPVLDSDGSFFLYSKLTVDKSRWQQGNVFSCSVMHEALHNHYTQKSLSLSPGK
human SIRPγ-his protein, sequence (Q9P1W8 29-360 limits assumed): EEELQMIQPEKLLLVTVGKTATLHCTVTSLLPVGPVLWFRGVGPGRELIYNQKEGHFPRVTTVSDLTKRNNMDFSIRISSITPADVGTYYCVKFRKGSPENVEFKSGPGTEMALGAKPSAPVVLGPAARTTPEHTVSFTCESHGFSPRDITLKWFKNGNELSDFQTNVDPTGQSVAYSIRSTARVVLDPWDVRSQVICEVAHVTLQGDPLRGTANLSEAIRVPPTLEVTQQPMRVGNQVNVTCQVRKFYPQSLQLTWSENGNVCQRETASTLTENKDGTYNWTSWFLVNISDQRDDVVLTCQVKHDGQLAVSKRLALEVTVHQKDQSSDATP

binding result (mouse SIRPα-his) | EC50 [1] [nM] | EC50 [2] [nM] | EC50 [3] [nM] | EC50 [4] [nM] | EC50 [5] [nM] | binding result [6] | binding result (human SIRPβ-his protein) | IC50 [9] [nM] | Kd (human SIRPα-his protein [10]) [nM] | koff (human SIRPα-his protein [10]) [s⁻¹] | kon (human SIRPα-his protein [10]) [M⁻¹ s⁻¹] | Kd [11] [nM] | koff [11] [s⁻¹] | kon [11] [M⁻¹ s⁻¹] | IC50 [12] [nM] | EC50 [14] [nM] | EC50 [16] [nM] | IC50 [17] [nM] | Binder | binding result (human SIRPγ-his protein) | also measured
no binding (tested: ~67 nM) | 0.141 | 0.209 | 0.173 | 0.956 | 1.47 | no binding (tested: ~67 nM) | no binding | 2.62 | 14.6 | 0.00188 | 129000 | 553 | 0.0146 | 26400 | 0.368 |  |  |  | E1H10B7-CDRV1-IgG1 (YTE) (antibody) heavy: QVQLVQSGAEVKKPGASVKVSCKASGYTFTSYAMQWVRQAPGQRLEWMGWIIAGNADTKYSQNFQDRVTLTRDTSANTAYMDLSGLRSEDTAVYYCARGSGFSGYGYFDKWGQGTLVTVSSASTKGPSVFPLAPSSKSTSGGTAALGCLVKDYFPEPVTVSWNSGALTSGVHTFPAVLQSSGLYSLSSVVTVPSSSLGTQTYICNVNHKPSNTKVDKKVEPKSCDKTHTCPPCPAPEAQGGPSVFLFPPKPKDTLYITREPEVTCVVVDVSHEDPEVKFNWYVDGVEVHNAKTKPREEQYNSTYRVVSVLTVLHQDWLNGKEYKCQVSNKALPAPIEKTISKAKGQPREPQVYTLPPSRDELTKNQVSLTCLVKGFYPSDIAVEWESNGQPENNYKTTPPVLDSDGSFFLYSKLTVDKSRWQQGNVFSCSVMHEALHNHYTQKSLSLSPG light: DIQMTQSPSSLSASVGDRVTITCRASHSISSYLNWYQQKPGKVPKLLIYASSSLQSGVPSRFSGSGSGTDFTLIISSLQPEDFATYYCQQSHSIPLTFGGGTKVEIKRTVAAPSVFIFPPSDEQLKSGTASVVCLLNNFYPREAKVQWKVDNALQSGNSQESVTEQDSKDSTYSLSSTLTLSKADYEKHKVYACEVTHQGLSSPVTKSFNRGEC | no binding (tested: antigen starting at 200 nM) | Kd [7]: 28.8 nM; Kd [8]: 129 nM
no binding (tested: ~67 nM) | 0.151 | 0.224 | 0.184 | 0.973 | 1.23 | no binding (tested: ~67 nM) | no binding | 2.3 | 8.78 | 0.00118 | 134000 | 376 | 0.0132 | 35000 | 0.347 |  |  |  | E1H10B7-CDRV1-IgG1 (antibody) heavy: not shown light: DIQMTQSPSSLSASVGDRVTITCRASHSISSYLNWYQQKPGKVPKLLIYASSSLQSGVPSRFSGSGSGTDFTLIISSLQPEDFATYYCQQSHSIPLTFGGGTKVEIKRTVAAPSVFIFPPSDEQLKSGTASVVCLLNNFYPREAKVQWKVDNALQSGNSQESVTEQDSKDSTYSLSSTLTLSKADYEKHKVYACEVTHQGLSSPVTKSFNRGEC | no binding (tested: antigen starting at 200 nM) | Kd [13]: 94.1 nM
 |  |  |  |  |  |  |  |  |  |  |  |  |  |  |  | 0.303 | 0.105 | 0.146 | E1F1B1C3 (antibody, V domains shown) VH: QVQLVQSGAEVKKPGASVKVSCKASGYTFTSNAMHWVRQVPGQGLEWMGWIKAGNGEIKYSQKFQGRVTITRDTSATTAYMELSSLRSEDTAVYYCARGDYYYYYMDVWGKGTTVTVSS VL: DIQVTQSPSSLSASVGDRVTITCRASQSISDFLNWYQQKPGKAPKLLIHAASSLQNGVPSRFSGSGSGTDFSLTINSLQPEDFATYYCQQSYSTPLSFGGGTKVEIK |  | EC50 [15]: 0.217 nM; IC50 (human SIRPα-his protein [18]): 2.13 nM; EC50 [19]: 106 nM; EC50 [20]: 0.0491 nM; EC50 [21]: 48.1 nM
 |  |  |  |  |  |  |  |  |  |  |  |  |  |  |  | 0.927 | 0.119 | 0.706 | E1D5E1F1 (antibody, V domains shown, Purified from a hybridoma of AceMouse mice: human heavy and light chain variable regions with mouse constant regions) VH: QVQLVQSGAEVKKPGASVKVSCKASGYTFTSFAMQWVRRAPGQRLEWMGWIIAGNGDTKYSQNFQDRVTLTRDTSANTAYMDLSGLRSEDTAVYYCARGSGFSGYGYFDKWGQGTLVTVSS VL: DIQMTQSPSSLSASVGDRVTITCRASHSISSYLNWYQQKPGKVPKLLIYASSSLQSGVPSRFSGNGSGTDFTLIISSLQPEDFATYYCQQSHSIPLTFGGGTKVEIK |  | EC50 [22]: 0.094 nM; EC50 [23]: 0.738 nM; IC50 (human SIRPα-his protein [18]): 2.17 nM; EC50 [19]: 0.63 nM; EC50 [20]: 0.0715 nM
